# Values of other authors, collected in PMC3433420.
# Read-outs that look alike come from different tables or passages of the source.
# Experiments:
# Conditions in all cases: cited from earlier work
# BLK (Homo sapiens) [1] = biological target: BLK (Homo sapiens) (UniProt P51451)
# ABL2 (Homo sapiens) [2] = biological target: ABL2 (Homo sapiens) (UniProt P42684)
# RASA1-N (Homo sapiens) [3] = biological target: RASA1-N (Homo sapiens) (UniProt P20936)
# SYK-NC (Homo sapiens) [4] = biological target: SYK-NC (Homo sapiens) (UniProt P43405)
# ABL2 (Homo sapiens) [5] = biological target: ABL2 (Homo sapiens) (UniProt P42684); remark: listed apart in the source
# SHB (Homo sapiens) = SHB (Homo sapiens) (UniProt Q15464)
# YES1 (Homo sapiens) [6] = biological target: YES1 (Homo sapiens) (UniProt P07947)
# RASA1-N (Homo sapiens) [7] = biological target: RASA1-N (Homo sapiens) (UniProt P20936); remark: listed apart in the source
# SOCS5 (Homo sapiens) = SOCS5 (Homo sapiens) (UniProt O75159)
# RASA1-N (Homo sapiens) [8] = biological target: RASA1-N (Homo sapiens) (UniProt P20936); remark: listed apart in the source
# PLCG2-NC (Homo sapiens) [9] = biological target: PLCG2-NC (Homo sapiens) (UniProt P16885)
# RASA1-NC (Homo sapiens) = RASA1-NC (Homo sapiens) (UniProt P20936)
# SLA (Homo sapiens) = SLA (Homo sapiens) (UniProt Q13239)
# GRB7 (Homo sapiens) = GRB7 (Homo sapiens) (UniProt Q14451)
# PIK3R3-NC (Homo sapiens) [10] = biological target: PIK3R3-NC (Homo sapiens) (UniProt Q92569)
# ABL2 (Homo sapiens) [11] = biological target: ABL2 (Homo sapiens) (UniProt P42684); remark: listed apart in the source
# PIK3R3-N (Homo sapiens) [12] = biological target: PIK3R3-N (Homo sapiens) (UniProt Q92569)
# BLK (Homo sapiens) [13] = biological target: BLK (Homo sapiens) (UniProt P51451); remark: listed apart in the source
# PIK3R1-NC (Homo sapiens) [14] = biological target: PIK3R1-NC (Homo sapiens) (UniProt P27986)
# PIK3R3-NC (Homo sapiens) [15] = biological target: PIK3R3-NC (Homo sapiens) (UniProt Q92569); remark: listed apart in the source
# FGR (Homo sapiens) [16] = biological target: FGR (Homo sapiens) (UniProt P09769)
# ABL2 (Homo sapiens) [17] = biological target: ABL2 (Homo sapiens) (UniProt P42684); remark: listed apart in the source
# ZAP70-NC (Homo sapiens) = ZAP70-NC (Homo sapiens) (UniProt P43403)
# YES1 (Homo sapiens) [18] = biological target: YES1 (Homo sapiens) (UniProt P07947); remark: listed apart in the source
# RASA1-N (Homo sapiens) [19] = biological target: RASA1-N (Homo sapiens) (UniProt P20936); remark: listed apart in the source
# PIK3R2-N (Homo sapiens) [20] = biological target: PIK3R2-N (Homo sapiens) (UniProt O00459)
# GRB2 (Homo sapiens) = GRB2 (Homo sapiens) (UniProt P62993)
# PIK3R2-N (Homo sapiens) [21] = biological target: PIK3R2-N (Homo sapiens) (UniProt O00459); remark: listed apart in the source
# SYK-NC (Homo sapiens) [22] = biological target: SYK-NC (Homo sapiens) (UniProt P43405); remark: listed apart in the source
# VAV1 (Homo sapiens) = VAV1 (Homo sapiens) (UniProt P15498)
# SHC1-PTB (Homo sapiens) [23] = biological target: SHC1-PTB (Homo sapiens) (UniProt P29353)
# PLCG2-NC (Homo sapiens) [24] = biological target: PLCG2-NC (Homo sapiens) (UniProt P16885); remark: listed apart in the source
# ITK (Homo sapiens) = ITK (Homo sapiens) (UniProt Q08881)
# PIK3R3-NC (Homo sapiens) [25] = biological target: PIK3R3-NC (Homo sapiens) (UniProt Q92569); remark: listed apart in the source
# PIK3R1-NC (Homo sapiens) [26] = biological target: PIK3R1-NC (Homo sapiens) (UniProt P27986); remark: listed apart in the source
# RASA1-N (Homo sapiens) [27] = biological target: RASA1-N (Homo sapiens) (UniProt P20936); remark: listed apart in the source
# VAV2 (Homo sapiens) [28] = biological target: VAV2 (Homo sapiens) (UniProt P52735)
# PIK3R3-NC (Homo sapiens) [29] = biological target: PIK3R3-NC (Homo sapiens) (UniProt Q92569); remark: listed apart in the source
# YES1 (Homo sapiens) [30] = biological target: YES1 (Homo sapiens) (UniProt P07947); remark: listed apart in the source
# CRKL (Homo sapiens) = CRKL (Homo sapiens) (UniProt P46109)
# NCK2 (Homo sapiens) [31] = biological target: NCK2 (Homo sapiens) (UniProt O43639)
# SYK-C (Homo sapiens) = SYK-C (Homo sapiens) (UniProt P43405)
# SHC1-PTB (Homo sapiens) [32] = biological target: SHC1-PTB (Homo sapiens) (UniProt P29353); remark: listed apart in the source
# VAV3 (Homo sapiens) = VAV3 (Homo sapiens) (UniProt Q9UKW4)
# VAV2 (Homo sapiens) [33] = biological target: VAV2 (Homo sapiens) (UniProt P52735); remark: listed apart in the source
# NCK2 (Homo sapiens) [34] = biological target: NCK2 (Homo sapiens) (UniProt O43639); remark: listed apart in the source
# SYK-NC (Homo sapiens) [35] = biological target: SYK-NC (Homo sapiens) (UniProt P43405); remark: listed apart in the source
# PIK3R3-N (Homo sapiens) [36] = biological target: PIK3R3-N (Homo sapiens) (UniProt Q92569); remark: listed apart in the source
# FGR (Homo sapiens) [37] = biological target: FGR (Homo sapiens) (UniProt P09769); remark: listed apart in the source
# ABL2 (Homo sapiens) [38] = biological target: ABL2 (Homo sapiens) (UniProt P42684); remark: listed apart in the source
# ABL2 (Homo sapiens) [39] = biological target: ABL2 (Homo sapiens) (UniProt P42684); remark: listed apart in the source
# RASA1-N (Homo sapiens) [40] = biological target: RASA1-N (Homo sapiens) (UniProt P20936); remark: listed apart in the source
# YES1 (Homo sapiens), sequence (P07947 153-260): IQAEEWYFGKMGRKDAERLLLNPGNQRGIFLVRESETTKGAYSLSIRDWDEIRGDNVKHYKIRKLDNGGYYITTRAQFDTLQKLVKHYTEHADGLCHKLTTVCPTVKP
# RASA1-N (Homo sapiens), sequence (P20936 176-446): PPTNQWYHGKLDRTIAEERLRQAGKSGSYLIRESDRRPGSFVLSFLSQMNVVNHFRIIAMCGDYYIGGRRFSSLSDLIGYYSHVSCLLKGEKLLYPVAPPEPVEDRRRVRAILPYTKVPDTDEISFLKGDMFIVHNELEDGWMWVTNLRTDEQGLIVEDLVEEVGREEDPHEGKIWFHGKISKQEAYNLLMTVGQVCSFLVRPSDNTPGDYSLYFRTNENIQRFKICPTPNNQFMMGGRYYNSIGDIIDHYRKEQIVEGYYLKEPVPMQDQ
# ABL2 (Homo sapiens), sequence (P42684 168-268): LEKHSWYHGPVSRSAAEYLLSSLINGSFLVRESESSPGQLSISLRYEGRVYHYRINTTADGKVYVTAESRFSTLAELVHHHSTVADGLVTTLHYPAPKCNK
# PLCG2-NC (Homo sapiens), sequence (P16885 527-740): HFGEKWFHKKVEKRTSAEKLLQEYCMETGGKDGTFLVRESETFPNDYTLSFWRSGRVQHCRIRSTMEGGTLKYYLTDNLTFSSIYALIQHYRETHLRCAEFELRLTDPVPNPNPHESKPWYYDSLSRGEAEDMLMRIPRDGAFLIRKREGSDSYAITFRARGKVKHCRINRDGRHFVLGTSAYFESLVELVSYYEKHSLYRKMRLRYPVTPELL
# NCK2 (Homo sapiens), sequence (O43639 280-380): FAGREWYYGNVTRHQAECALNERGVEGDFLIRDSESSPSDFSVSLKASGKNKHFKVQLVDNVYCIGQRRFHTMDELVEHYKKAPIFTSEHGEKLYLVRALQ
# VAV2 (Homo sapiens), sequence (P52735 668-772): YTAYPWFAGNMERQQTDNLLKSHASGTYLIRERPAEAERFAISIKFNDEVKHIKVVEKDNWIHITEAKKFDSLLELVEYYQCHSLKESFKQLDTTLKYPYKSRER
# SHC1-PTB (Homo sapiens), sequence (P29353 483-583): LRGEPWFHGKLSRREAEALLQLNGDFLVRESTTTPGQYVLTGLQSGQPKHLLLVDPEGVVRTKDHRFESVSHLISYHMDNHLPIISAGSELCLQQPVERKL
# PIK3R2-N (Homo sapiens), sequence (O00459 325-721): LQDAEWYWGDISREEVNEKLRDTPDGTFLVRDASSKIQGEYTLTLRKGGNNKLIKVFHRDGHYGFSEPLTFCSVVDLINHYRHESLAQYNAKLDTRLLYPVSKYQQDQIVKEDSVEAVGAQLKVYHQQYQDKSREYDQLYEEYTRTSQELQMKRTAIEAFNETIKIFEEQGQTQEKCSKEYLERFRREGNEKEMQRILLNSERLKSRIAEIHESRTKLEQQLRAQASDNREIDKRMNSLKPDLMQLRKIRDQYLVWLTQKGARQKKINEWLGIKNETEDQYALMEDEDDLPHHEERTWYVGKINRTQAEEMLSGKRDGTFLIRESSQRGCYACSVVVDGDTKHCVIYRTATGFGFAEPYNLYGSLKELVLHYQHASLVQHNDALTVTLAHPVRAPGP
# BLK (Homo sapiens), sequence (P51451 119-225): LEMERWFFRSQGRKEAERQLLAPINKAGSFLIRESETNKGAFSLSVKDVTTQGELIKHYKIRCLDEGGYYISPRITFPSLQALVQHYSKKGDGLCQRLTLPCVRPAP
# PIK3R1-NC (Homo sapiens), sequence (P27986 328-723): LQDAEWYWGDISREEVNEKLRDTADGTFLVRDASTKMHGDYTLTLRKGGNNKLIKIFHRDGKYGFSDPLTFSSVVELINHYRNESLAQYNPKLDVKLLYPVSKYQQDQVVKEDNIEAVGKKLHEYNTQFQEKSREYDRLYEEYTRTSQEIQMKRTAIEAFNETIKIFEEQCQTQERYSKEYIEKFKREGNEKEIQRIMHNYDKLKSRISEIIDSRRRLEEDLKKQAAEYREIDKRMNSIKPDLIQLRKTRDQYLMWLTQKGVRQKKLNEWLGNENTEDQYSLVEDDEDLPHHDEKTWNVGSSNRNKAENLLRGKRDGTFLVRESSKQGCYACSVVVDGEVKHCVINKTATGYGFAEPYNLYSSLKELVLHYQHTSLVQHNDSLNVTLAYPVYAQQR
# VAV3 (Homo sapiens), sequence (Q9UKW4 667-771): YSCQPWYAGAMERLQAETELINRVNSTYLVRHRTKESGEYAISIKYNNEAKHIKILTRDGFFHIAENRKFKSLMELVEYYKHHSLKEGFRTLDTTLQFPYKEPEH
# SHB (Homo sapiens), sequence (Q15464 405-509): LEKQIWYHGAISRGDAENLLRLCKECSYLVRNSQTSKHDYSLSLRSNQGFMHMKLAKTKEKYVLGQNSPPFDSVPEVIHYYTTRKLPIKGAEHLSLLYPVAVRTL
# GRB2 (Homo sapiens), sequence (P62993 55-157): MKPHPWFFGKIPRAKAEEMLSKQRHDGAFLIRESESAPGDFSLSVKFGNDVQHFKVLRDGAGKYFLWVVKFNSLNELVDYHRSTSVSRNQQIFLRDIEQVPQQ
# CRKL (Homo sapiens), sequence (P46109 9-107): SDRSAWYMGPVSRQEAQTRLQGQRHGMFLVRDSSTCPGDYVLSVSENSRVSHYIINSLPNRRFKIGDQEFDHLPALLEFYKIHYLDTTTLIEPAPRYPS
# RASA1-NC (Homo sapiens), sequence (P20936 176-446): as the sequence (P20936 176-446) above
# ZAP70-NC (Homo sapiens), sequence (P43403 5-259): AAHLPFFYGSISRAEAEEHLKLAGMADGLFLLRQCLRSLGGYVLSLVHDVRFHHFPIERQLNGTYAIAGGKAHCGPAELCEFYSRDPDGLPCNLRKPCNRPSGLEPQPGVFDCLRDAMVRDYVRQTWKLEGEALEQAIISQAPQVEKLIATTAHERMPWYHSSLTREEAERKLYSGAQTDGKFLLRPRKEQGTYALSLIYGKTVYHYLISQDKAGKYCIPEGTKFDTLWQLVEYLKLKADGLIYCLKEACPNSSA
# GRB7 (Homo sapiens), sequence (Q14451 426-532): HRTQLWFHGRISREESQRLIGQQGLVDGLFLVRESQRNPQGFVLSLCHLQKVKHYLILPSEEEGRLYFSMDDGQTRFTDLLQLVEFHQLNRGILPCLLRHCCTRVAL
# VAV1 (Homo sapiens), sequence (P15498 666-770): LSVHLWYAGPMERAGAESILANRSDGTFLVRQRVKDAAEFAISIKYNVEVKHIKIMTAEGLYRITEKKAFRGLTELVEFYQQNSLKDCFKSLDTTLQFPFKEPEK
# SOCS5 (Homo sapiens), sequence (O75159 376-481): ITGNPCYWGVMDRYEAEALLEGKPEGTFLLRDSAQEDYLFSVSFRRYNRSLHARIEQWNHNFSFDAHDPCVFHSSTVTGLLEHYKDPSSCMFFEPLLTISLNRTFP
# SLA (Homo sapiens), sequence (Q13239 79-180): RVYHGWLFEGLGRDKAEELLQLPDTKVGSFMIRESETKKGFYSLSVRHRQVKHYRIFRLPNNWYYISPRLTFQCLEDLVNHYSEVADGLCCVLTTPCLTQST
# ITK (Homo sapiens), sequence (Q08881 234-343): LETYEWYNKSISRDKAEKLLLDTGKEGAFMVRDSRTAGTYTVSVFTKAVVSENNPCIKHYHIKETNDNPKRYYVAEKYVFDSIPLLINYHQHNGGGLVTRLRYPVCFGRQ
substance,measurement,setting,value
…pYDGIPASEd,apparent Kd (screen),BLK (Homo sapiens) [1],1.18 µM
same,apparent Kd (screen),ABL2 (Homo sapiens) [2],0.177 µM
same,apparent Kd (screen),RASA1-N (Homo sapiens) [3],1.47 µM
same,apparent Kd (screen),SYK-NC (Homo sapiens) [4],1.55 µM
same,apparent Kd (screen),ABL2 (Homo sapiens) [5],0.137 µM
same,apparent Kd (screen),SHB (Homo sapiens),1.06 µM
same,apparent Kd (screen),YES1 (Homo sapiens) [6],0.328 µM
same,apparent Kd (screen),RASA1-N (Homo sapiens) [7],1.41 µM
…pYMNRQRDG,apparent Kd (screen),SOCS5 (Homo sapiens),2 µM
same,apparent Kd (screen),RASA1-N (Homo sapiens) [8],1.21 µM
same,apparent Kd (screen),PLCG2-NC (Homo sapiens) [9],2 µM
same,apparent Kd (screen),RASA1-NC (Homo sapiens),2 µM
same,apparent Kd (screen),SLA (Homo sapiens),2 µM
same,apparent Kd (screen),GRB7 (Homo sapiens),2 µM
same,apparent Kd (screen),PIK3R3-NC (Homo sapiens) [10],2 µM
same,apparent Kd (screen),ABL2 (Homo sapiens) [11],1.96 µM
…pYMNRRRRH,apparent Kd (screen),PIK3R3-N (Homo sapiens) [12],1.38 µM
same,apparent Kd (screen),BLK (Homo sapiens) [13],1.81 µM
same,apparent Kd (screen),PIK3R1-NC (Homo sapiens) [14],1.51 µM
same,apparent Kd (screen),PIK3R3-NC (Homo sapiens) [15],1.46 µM
same,apparent Kd (screen),FGR (Homo sapiens) [16],1.13 µM
same,apparent Kd (screen),ABL2 (Homo sapiens) [17],0.296 µM
same,apparent Kd (screen),ZAP70-NC (Homo sapiens),1.47 µM
same,apparent Kd (screen),YES1 (Homo sapiens) [18],0.585 µM
same,apparent Kd (screen),RASA1-N (Homo sapiens) [19],0.306 µM
same,apparent Kd (screen),PIK3R2-N (Homo sapiens) [20],1.35 µM
…pYLTPQGGA,apparent Kd (screen),GRB2 (Homo sapiens),1.33 µM
same,apparent Kd (screen),PIK3R2-N (Homo sapiens) [21],1.28 µM
same,apparent Kd (screen),SYK-NC (Homo sapiens) [22],1.33 µM
same,apparent Kd (screen),VAV1 (Homo sapiens),1.25 µM
same,apparent Kd (screen),SHC1-PTB (Homo sapiens) [23],0.153 µM
same,apparent Kd (screen),PLCG2-NC (Homo sapiens) [24],1.35 µM
same,apparent Kd (screen),ITK (Homo sapiens),0.767 µM
same,apparent Kd (screen),PIK3R3-NC (Homo sapiens) [25],1.34 µM
same,apparent Kd (screen),PIK3R1-NC (Homo sapiens) [26],0.226 µM
same,apparent Kd (screen),RASA1-N (Homo sapiens) [27],0.671 µM
same,apparent Kd (screen),VAV2 (Homo sapiens) [28],0.226 µM
same,apparent Kd (screen),PIK3R3-NC (Homo sapiens) [29],0.95 µM
same,apparent Kd (screen),YES1 (Homo sapiens) [30],1.19 µM
same,apparent Kd (screen),CRKL (Homo sapiens),1.44 µM
same,apparent Kd (screen),NCK2 (Homo sapiens) [31],0.759 µM
same,apparent Kd (screen),SYK-C (Homo sapiens),1.24 µM
same,apparent Kd (screen),SHC1-PTB (Homo sapiens) [32],0.346 µM
same,apparent Kd (screen),VAV3 (Homo sapiens),0.596 µM
same,apparent Kd (screen),VAV2 (Homo sapiens) [33],0.372 µM
same,apparent Kd (screen),NCK2 (Homo sapiens) [34],1.1 µM
same,apparent Kd (screen),SYK-NC (Homo sapiens) [35],1.15 µM
same,apparent Kd (screen),PIK3R3-N (Homo sapiens) [36],1.39 µM
same,apparent Kd (screen),FGR (Homo sapiens) [37],1.68 µM
same,apparent Kd (screen),ABL2 (Homo sapiens) [38],0.476 µM
same,apparent Kd (screen),ABL2 (Homo sapiens) [39],0.368 µM
same,apparent Kd (screen),RASA1-N (Homo sapiens) [40],0.638 µM
